In the Human Domainome abundance scans (Beltran et al. 2025):
± gives the uncertainty stated by the source.

B1: Protein C-ets-1, residues 55 to 135; numbered along this chain, P14921 (parent)
chain: GFTKEQQRLGIPKDPRQWTETHVRDWVMWAVNEFSLKGVDFQKFCMNGAALCALGKDCFLELAPDFVGDILWEHLEILQKE

Variants of: B1
Test: abundance fitness (aPCA) (normalised: wild type 0, dead -1); higher = more abundant; growth selection in yeast, the domain comes from the species named
Details: Homo sapiens

Abundance fitness: each site, then its substitutions
W18: T -0.999 ± 0.13; A -0.967 ± 0.082; V -0.891 ± 0.077; E -0.814 ± 0.086; R -0.733 ± 0.061; Q -0.899 ± 0.23; H -1.05 ± 0.27; D -0.962 ± 0.24; L -0.954 ± 0.077; K -1.01 ± 0.18; G -0.992 ± 0.074; C -0.785 ± 0.13; M -1.08 ± 0.27; F -1.11 ± 0.2; N -0.965 ± 0.21
I11: L -0.013 ± 0.026; Y -0.207 ± 0.047; W -0.078 ± 0.062; M -0.043 ± 0.05; N -0.288 ± 0.074; K -0.695 ± 0.087; D -0.647 ± 0.1; H -0.364 ± 0.13; E -0.773 ± 0.098; T -0.205 ± 0.051; A -0.326 ± 0.033; C -0.108 ± 0.1; R -0.132 ± 0.038; P -0.465 ± 0.056; V -0.09 ± 0.026; G -0.583 ± 0.043; S -0.344 ± 0.039
L9: V -0.126 ± 0.036; Q -0.165 ± 0.064; P -0.32 ± 0.072; C -0.088 ± 0.089; R -0.017 ± 0.039; M -0.066 ± 0.057; W -0.192 ± 0.043; T -0.082 ± 0.048; G -0.195 ± 0.028; A -0.182 ± 0.041; I -0.178 ± 0.086; E -0.261 ± 0.055; K -0.139 ± 0.082; N -0.137 ± 0.11; H -0.216 ± 0.092; Y -0.158 ± 0.12; F -0.2 ± 0.068
T19: M -0.345 ± 0.053; W -0.945 ± 0.11; P -0.936 ± 0.091; S -0.052 ± 0.033; R -0.205 ± 0.03; C -0.221 ± 0.078; I -0.705 ± 0.13; L -0.376 ± 0.038; H -0.153 ± 0.096; Y -0.642 ± 0.091; Q -0.228 ± 0.068; V -0.635 ± 0.045; N -0.16 ± 0.084; E -0.155 ± 0.064; F -0.858 ± 0.11
D14: C -0.152 ± 0.061; G -0.844 ± 0.048; W -0.661 ± 0.047; L -0.552 ± 0.033; V -0.602 ± 0.033; T -0.62 ± 0.05; K -0.547 ± 0.071; I -0.76 ± 0.11; R -0.684 ± 0.036; S -0.339 ± 0.038; Y -0.407 ± 0.046; E -0.172 ± 0.04; Q -0.356 ± 0.045; F -0.443 ± 0.052; A -0.533 ± 0.034; M -0.52 ± 0.055; H -0.155 ± 0.044; N -0.122 ± 0.061; P -0.813 ± 0.068
V23: D -0.906 ± 0.13; I -0.438 ± 0.045; H -0.838 ± 0.24; E -1.03 ± 0.26; K -0.904 ± 0.2; M -0.916 ± 0.13; A -0.631 ± 0.054; P -0.985 ± 0.12; C -0.559 ± 0.08; G -0.967 ± 0.079; R -0.686 ± 0.059; L -0.728 ± 0.06; W -0.822 ± 0.1; Q -0.909 ± 0.11; T -0.126 ± 0.05; N -0.858 ± 0.24; S -0.48 ± 0.034; Y -0.955 ± 0.2; F -0.857 ± 0.11
Q7: A -0.055 ± 0.031; F -0.121 ± 0.084; K 0.074 ± 0.068; P -0.294 ± 0.048; L -0.02 ± 0.034; D 0 ± 0.075; S -0.069 ± 0.039; C -0.256 ± 0.06; W -0.133 ± 0.048; I 0.062 ± 0.086; V -0.028 ± 0.033; N -0.026 ± 0.13; T -0.06 ± 0.047; G -0.047 ± 0.029; R -0.034 ± 0.031; M 0.04 ± 0.057; E 0.089 ± 0.052
E5: S -0.245 ± 0.046; Y -0.045 ± 0.1; T -0.117 ± 0.069; F -0.088 ± 0.07; V -0.05 ± 0.039; L -0.108 ± 0.044; K -0.183 ± 0.06; M -0.018 ± 0.059; R -0.132 ± 0.035; I -0.105 ± 0.098; G -0.253 ± 0.028; W -0.186 ± 0.066; H -0.087 ± 0.095; Q -0.123 ± 0.061
R16: S -0.096 ± 0.041; F -0.024 ± 0.066; Y -0.049 ± 0.11; A -0.009 ± 0.039; L -0.025 ± 0.046; I -0.038 ± 0.087; M -0.029 ± 0.051; V -0.055 ± 0.033; G -0.108 ± 0.034; N 0.031 ± 0.082; W -0.107 ± 0.062; P -0.643 ± 0.069; D -0.147 ± 0.052; C -0.04 ± 0.082; E -0.01 ± 0.06; Q -0.006 ± 0.067
R8: H -0.095 ± 0.058; M -0.138 ± 0.059; Y -0.212 ± 0.066; P -0.132 ± 0.047; F -0.091 ± 0.074; L -0.086 ± 0.039; K -0.062 ± 0.061; E -0.074 ± 0.048; W -0.169 ± 0.043; N -0.16 ± 0.078; I -0.17 ± 0.12; C -0.154 ± 0.052; G -0.112 ± 0.03; S -0.136 ± 0.05; Q -0.083 ± 0.06; V -0.122 ± 0.031; D -0.093 ± 0.066; T -0.111 ± 0.071
Q17: A 0.013 ± 0.029; F -0.1 ± 0.076; V 0.002 ± 0.036; P -0.983 ± 0.14; I -0.114 ± 0.081; N -0.021 ± 0.072; T 0.033 ± 0.053; M 0.014 ± 0.06; Y -0.154 ± 0.14; E 0.046 ± 0.053; D 0.016 ± 0.07; C -0.034 ± 0.07; W -0.148 ± 0.051; G -0.159 ± 0.033; L -0.088 ± 0.045; H -0.115 ± 0.069; R -0.058 ± 0.036
K13: C -0.04 ± 0.052; R -0.077 ± 0.034; D -0.054 ± 0.09; Y -0.249 ± 0.11; L -0.065 ± 0.043; P 0.023 ± 0.057; T -0.064 ± 0.062; W -0.117 ± 0.05; H -0.04 ± 0.084; I -0.022 ± 0.088; M -0.086 ± 0.11; V -0.1 ± 0.049; E -0.084 ± 0.053; G -0.088 ± 0.034; Q -0.059 ± 0.067; F -0.152 ± 0.057; N 0.008 ± 0.11
G10: Q 0.008 ± 0.051; E -0.067 ± 0.045; V -0.2 ± 0.032; Y -0.33 ± 0.07; W -0.364 ± 0.048; K -0.028 ± 0.075; I -0.187 ± 0.096; A -0.057 ± 0.04; R -0.056 ± 0.033; C -0.15 ± 0.044; P -0.263 ± 0.035; L -0.244 ± 0.038; N -0.135 ± 0.081; D 0.015 ± 0.058; S -0.062 ± 0.034; H -0.072 ± 0.09; T -0.103 ± 0.047
E20: K -0.036 ± 0.063; G -0.264 ± 0.023; D -0.107 ± 0.032; Y -0.224 ± 0.05; T -0.036 ± 0.04; W -0.463 ± 0.045; F -0.396 ± 0.05; P -0.059 ± 0.035; C -0.105 ± 0.042; N -0.114 ± 0.072; Q -0.021 ± 0.055; I -0.128 ± 0.045; L -0.209 ± 0.025; M -0.078 ± 0.037; V -0.019 ± 0.023; A -0.035 ± 0.025
P12: L -0.567 ± 0.064; F -0.606 ± 0.095; C -0.305 ± 0.069; D -0.371 ± 0.067; Q -0.814 ± 0.12; G -0.427 ± 0.034; N -0.47 ± 0.15; M -0.747 ± 0.14; R -0.709 ± 0.058; T -0.799 ± 0.16; A -0.46 ± 0.05; E -0.413 ± 0.086; K -0.419 ± 0.14; H -0.379 ± 0.12; S -0.28 ± 0.047; W -0.706 ± 0.093; V -0.763 ± 0.065
Q6: G -0.101 ± 0.028; Y -0.058 ± 0.078; F -0.075 ± 0.088; L -0.006 ± 0.043; K -0.143 ± 0.08; P -0.389 ± 0.062; S -0.005 ± 0.04; V -0.096 ± 0.027; N -0.136 ± 0.2; W -0.1 ± 0.044; A 0.019 ± 0.043; E -0.164 ± 0.047; D -0.277 ± 0.063; R -0.041 ± 0.031; T -0.102 ± 0.062; I 0.034 ± 0.084; M 0.024 ± 0.066; C -0.113 ± 0.053; H -0.235 ± 0.047
P15: V -0.1 ± 0.038; L -0.281 ± 0.045; S -1.02 ± 0.12; C -0.254 ± 0.075; Y -1.07 ± 0.38; T -0.498 ± 0.067; W -0.685 ± 0.085; F -0.935 ± 0.14; Q -0.838 ± 0.19; G -0.845 ± 0.068; I -0.064 ± 0.075; E -0.974 ± 0.14; H -0.791 ± 0.36; A -0.351 ± 0.052; M -0.286 ± 0.081; K -0.813 ± 0.25; N -0.717 ± 0.21; D -1.15 ± 0.45
H22: F -0.965 ± 0.24; T -0.528 ± 0.049; W -0.904 ± 0.1; Y -0.625 ± 0.15; I -0.881 ± 0.17; M -0.18 ± 0.034; V -0.673 ± 0.054; Q -0.063 ± 0.049; G -0.565 ± 0.043; E -0.062 ± 0.057; D -0.047 ± 0.066; S -0.472 ± 0.044; R -0.818 ± 0.061; P -0.85 ± 0.11; N 0.023 ± 0.11; C -0.801 ± 0.12; K -1.07 ± 0.27; A -0.33 ± 0.032; L -0.687 ± 0.061
R24: E -0.275 ± 0.05; D -0.827 ± 0.13; L -0.05 ± 0.034; K 0.096 ± 0.075; I -0.133 ± 0.12; H 0.051 ± 0.087; A -0.087 ± 0.046; C -0.111 ± 0.068; M 0.023 ± 0.062; F -0.287 ± 0.088
T21: K -0.022 ± 0.073; V -0.041 ± 0.041; L -0.064 ± 0.037; W -0.196 ± 0.057; C -0.089 ± 0.049; Q 0.002 ± 0.053; M -0.058 ± 0.059; S -0.016 ± 0.032; D 0.081 ± 0.065; G -0.008 ± 0.029; I -0.143 ± 0.056; Y 0.043 ± 0.12; R 0.039 ± 0.029; E -0.073 ± 0.071; H -0.067 ± 0.074; A 0.002 ± 0.033; F -0.11 ± 0.07
